From paper PMC6346101
pKd: −log10 of the molar value.

Key:
[1] = biological target: Influenza D virus nucleoprotein, strain D/bovine/France/2986/2012 (Influenza D virus, strain D/bovine/France/2986/2012); assay: negative-stain electron microscopy
[2] = biological target: Influenza D virus nucleoprotein, strain D/bovine/France/2986/2012 (Influenza D virus, strain D/bovine/France/2986/2012); assay: SEC-MALLS
[3] = biological target: His-tagged D/NP_(TAIL) (505-D/NP-552) (Influenza D virus, strain D/bovine/France/2986/2012); assay: thermal shift assay (Thermofluor)
[4] = biological target: Biotinylated D/NP_(TAIL) fused to a biotinylation motif (Influenza D virus, strain D/bovine/France/2986/2012); assay: SPR; Biacore 3000; […]; 10 mM Hepes pH 7.4, 150 mM NaCl, 0.05% Tween 20; […]

Sequence of human importin-α7 without its IBB domain (amino-acids 58 to 536), O60684 58-536 (domain or fragment; other documents disagree on this pair) (O60684 58-536): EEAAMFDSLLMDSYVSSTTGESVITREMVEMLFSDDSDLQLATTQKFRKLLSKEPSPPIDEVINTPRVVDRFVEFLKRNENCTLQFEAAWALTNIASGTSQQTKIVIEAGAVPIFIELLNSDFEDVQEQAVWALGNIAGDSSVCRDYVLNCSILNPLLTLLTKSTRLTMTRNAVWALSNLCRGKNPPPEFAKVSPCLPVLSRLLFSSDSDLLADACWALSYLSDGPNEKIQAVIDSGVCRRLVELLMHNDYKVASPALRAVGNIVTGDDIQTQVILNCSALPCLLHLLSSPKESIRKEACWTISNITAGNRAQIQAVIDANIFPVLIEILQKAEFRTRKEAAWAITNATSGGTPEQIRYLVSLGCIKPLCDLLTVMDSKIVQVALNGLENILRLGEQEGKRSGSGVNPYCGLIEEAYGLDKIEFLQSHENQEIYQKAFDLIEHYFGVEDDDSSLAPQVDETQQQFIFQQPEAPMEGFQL

Substance | stoichiometry N [1] | stoichiometry N [2] | stoichiometry N (importin-α7 per D/NP tetramer) [2] | rise of the melting temperature [3] | pKd [4]
Influenza D virus nucleoprotein, strain D/bovine/France/2986/2012 (from UniProt A0A0E3VZU8 1-552) (natural protein) | 4 | 4 |  |  | 
human importin-α7 without its IBB domain (amino-acids 58 to 536), O60684 58-536 (domain or fragment; other documents disagree on this pair) |  |  | 4 | 5 °C | 7.00
